2 molecules from article PMC6171917 (PLoS ONE, 2018) can be followed below.

In assay [1] the target is T1, desmin, full-length (UniProt P17661 1-470).
T1 construct: desmin; The desmin fragments are said to be human; also called desmin IFs; source: E. coli, purified following a published protocol [37]; also whole E. coli extract; assembled in vitro into IFs for sedimentation assays
Nature of the assay: co-sedimentation; FluoBACE on in vitro assembled IFs (25 μg/mL constant); serial dilutions of HEK 293T soluble extract with EGFP-DSP C-terminus (active ≤ 30 nM); 15 min at 4°C (K5/K14 IFs) or 22°C (desmin IFs); 20,000 × g 30 min; fluorescence in supernatant; one site specific binding with Hill slope; apparent Kd. As to conditions: one partner purified.

Assay [2] addresses T2, K5/K14 (mixture or heterodimer of full-length cytokeratins 5 and 14) (UniProt P13647 1-590; P02533 1-472).
T2 construct: cytokeratin 5 (K5), plasmid pET23-K5; cytokeratin 14 (K14), plasmid pET23-K14; Same two recombinant proteins used spotted in 8 M urea (dot blot) and as in vitro assembled filaments (sedimentation assays); also called K5/K14 IFs; K5/K14 filaments; source: mixed for spotting, or heterodimer isolated by anion exchange and assembled into IFs
T2 sequence (looked up) 1: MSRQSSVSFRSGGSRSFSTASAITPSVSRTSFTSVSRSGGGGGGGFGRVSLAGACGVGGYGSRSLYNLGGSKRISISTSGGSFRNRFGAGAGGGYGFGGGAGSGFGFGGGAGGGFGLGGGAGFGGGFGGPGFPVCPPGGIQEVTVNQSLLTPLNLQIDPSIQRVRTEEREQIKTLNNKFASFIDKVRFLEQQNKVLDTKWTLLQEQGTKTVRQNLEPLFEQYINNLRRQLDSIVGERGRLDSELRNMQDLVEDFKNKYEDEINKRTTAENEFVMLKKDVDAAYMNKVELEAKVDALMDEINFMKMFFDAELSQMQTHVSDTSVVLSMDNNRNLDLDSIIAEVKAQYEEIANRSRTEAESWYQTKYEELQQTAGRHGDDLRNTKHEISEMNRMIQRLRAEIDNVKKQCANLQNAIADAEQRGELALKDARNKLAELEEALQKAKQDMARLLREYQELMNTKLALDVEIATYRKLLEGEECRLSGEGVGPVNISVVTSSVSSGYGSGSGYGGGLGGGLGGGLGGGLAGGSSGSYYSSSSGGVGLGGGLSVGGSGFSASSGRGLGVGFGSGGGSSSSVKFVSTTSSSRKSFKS
T2 sequence (looked up) 2: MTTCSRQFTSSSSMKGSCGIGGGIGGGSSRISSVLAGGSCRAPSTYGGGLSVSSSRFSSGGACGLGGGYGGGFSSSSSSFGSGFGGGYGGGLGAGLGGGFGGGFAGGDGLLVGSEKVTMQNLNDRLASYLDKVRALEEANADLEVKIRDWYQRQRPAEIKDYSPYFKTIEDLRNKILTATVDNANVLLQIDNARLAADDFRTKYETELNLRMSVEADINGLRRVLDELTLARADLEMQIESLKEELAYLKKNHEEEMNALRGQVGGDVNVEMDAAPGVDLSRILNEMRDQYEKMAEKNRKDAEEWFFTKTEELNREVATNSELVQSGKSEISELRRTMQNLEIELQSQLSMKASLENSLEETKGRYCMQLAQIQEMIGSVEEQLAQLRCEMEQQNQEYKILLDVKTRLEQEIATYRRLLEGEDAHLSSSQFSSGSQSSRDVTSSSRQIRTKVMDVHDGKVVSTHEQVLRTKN
The description is as above. The settings on record: one partner purified.

The target of assay [3] is T3, K5 (cytokeratin 5), purified (UniProt P13647 1-590).
T3 construct: cytokeratin 5 (K5), plasmid pET23-K5; source: E. coli Rosetta pLysS, inclusion bodies, purified (cation exchange, Superdex 200 in 6 M urea)
T3 sequence (looked up): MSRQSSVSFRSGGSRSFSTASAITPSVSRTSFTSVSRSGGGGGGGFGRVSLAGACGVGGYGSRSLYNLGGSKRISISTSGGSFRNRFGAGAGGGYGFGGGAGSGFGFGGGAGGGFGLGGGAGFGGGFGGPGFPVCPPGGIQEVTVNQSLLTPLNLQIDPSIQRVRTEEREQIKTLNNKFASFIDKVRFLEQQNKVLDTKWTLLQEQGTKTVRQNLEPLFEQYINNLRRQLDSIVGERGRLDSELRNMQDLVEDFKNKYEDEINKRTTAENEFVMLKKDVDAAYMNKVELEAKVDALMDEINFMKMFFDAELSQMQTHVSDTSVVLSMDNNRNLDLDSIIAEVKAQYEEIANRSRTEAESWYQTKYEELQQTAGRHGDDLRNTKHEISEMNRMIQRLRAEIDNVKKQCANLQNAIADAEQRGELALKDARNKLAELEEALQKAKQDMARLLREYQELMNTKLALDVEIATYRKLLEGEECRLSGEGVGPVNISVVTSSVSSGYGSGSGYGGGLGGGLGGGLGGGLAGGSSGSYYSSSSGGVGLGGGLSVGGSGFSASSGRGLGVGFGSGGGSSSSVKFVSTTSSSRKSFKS
Nature of the assay: co-sedimentation; K5 and K14 mixed 1.1:1, heterodimer isolated on anion exchanger in 8 M urea, dialyzed against 0.7 mM sodium phosphate pH 7.5, assembly with 20 mM KCl at 37°C 30 min; 20,000 × g 4°C 30 min, pellet and supernatant by SDS-PAGE. As to conditions: both partners purified.

T1 sequence (P17661 whole entry, the tested form may be a part): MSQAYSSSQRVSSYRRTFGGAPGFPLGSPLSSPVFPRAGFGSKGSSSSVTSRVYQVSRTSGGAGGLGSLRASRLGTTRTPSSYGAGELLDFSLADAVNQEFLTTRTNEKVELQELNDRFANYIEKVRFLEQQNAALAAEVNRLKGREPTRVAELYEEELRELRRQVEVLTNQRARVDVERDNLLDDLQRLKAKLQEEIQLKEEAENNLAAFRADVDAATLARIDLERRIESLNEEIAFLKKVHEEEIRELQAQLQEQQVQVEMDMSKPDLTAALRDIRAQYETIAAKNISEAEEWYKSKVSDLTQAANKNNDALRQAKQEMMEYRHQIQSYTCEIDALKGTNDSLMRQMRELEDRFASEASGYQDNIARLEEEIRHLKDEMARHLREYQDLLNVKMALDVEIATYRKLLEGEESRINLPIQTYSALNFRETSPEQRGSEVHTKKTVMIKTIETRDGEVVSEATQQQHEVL

B1: EGFP-DSP C-terminus (C-terminus of desmoplakin tagged at the N-terminus with EGFP) (domain or fragment, UniProt P15924-1 2194-2871, looked up)
chain: PHTGLLLLSVQKRSMSFQGIRQPVTVTELVDSGILRPSTVNELESGQISYDEVGERIKDFLQGSSCIAGIYNETTKQKLGIYEAMKIGLVRPGTALELLEAQAATGFIVDPVSNLRLPVEEAYKRGLVGIEFKEKLLSAERAVTGYNDPETGNIISLFQAMNKELIEKGHGIRLLEAQIATGGIIDPKESHRLPVDIAYKRGYFNEELSEILSDPSDDTKGFFDPNTEENLTYLQLKERCIKDEETGLCLLPLKEKKKQVQTSQKNTLRKRRVVIVDPETNKEMSVQEAYKKGLIDYETFKELCEQECEWEEITITGSDGSTRVVLVDRKTGSQYDIQDAIDKGLVDRKFFDQYRSGSLSLTQFADMISLKNGVGTSSSMGSGVSDDVFSSSRHESVSKISTISSVRNLTIRSSSFSDTLEESSPIAAIFDTENLEKISITEGIERGIVDSITGQRLLEAQACTGGIIHPTTGQKLSLQDAVSQGVIDQDMATRLKPAQKAFIGFEGVKGKKKMSAAEAVKEKWLPYEAGQRFLEFQYLTGGLVDPEVHGRISTEEAIRKGFIDGRAAQRLQDTSSYAKILTCPKTKLKISYKDAINRSMVEDITGLRLLEAASVSSKGLPSPYNMSSAPGSRSGSRSGSRSGSRSGSRSGSRRGGFDATGNSSYSYSYSFSSSSIGH
notes: construct previously described [8]; KD curves use the active concentration; source: HEK 293T, transfected (calcium phosphate), soluble fraction of cell lysate; not shown: EGFP, N-terminal, kept
On to B1, for which the Kd was 18 nM in assay [1] and 10 nM in assay [2].

B2: K14 (cytokeratin 14), purified (natural protein, UniProt P02533 1-472, looked up)
chain: MTTCSRQFTSSSSMKGSCGIGGGIGGGSSRISSVLAGGSCRAPSTYGGGLSVSSSRFSSGGACGLGGGYGGGFSSSSSSFGSGFGGGYGGGLGAGLGGGFGGGFAGGDGLLVGSEKVTMQNLNDRLASYLDKVRALEEANADLEVKIRDWYQRQRPAEIKDYSPYFKTIEDLRNKILTATVDNANVLLQIDNARLAADDFRTKYETELNLRMSVEADINGLRRVLDELTLARADLEMQIESLKEELAYLKKNHEEEMNALRGQVGGDVNVEMDAAPGVDLSRILNEMRDQYEKMAEKNRKDAEEWFFTKTEELNREVATNSELVQSGKSEISELRRTMQNLEIELQSQLSMKASLENSLEETKGRYCMQLAQIQEMIGSVEEQLAQLRCEMEQQNQEYKILLDVKTRLEQEIATYRRLLEGEDAHLSSSQFSSGSQSSRDVTSSSRQIRTKVMDVHDGKVVSTHEQVLRTKN
notes: cytokeratin 14 (K14), plasmid pET23-K14; source: E. coli Rosetta, inclusion bodies, purified (anion exchange, gel filtration in 6 M urea)
Consider B2, for which the binding result in assay [3] is “binds”.
